According to paper PMC3302758 (Molecular Biology of the Cell, 2012):

Target: Cystic fibrosis transmembrane conductance regulator (CFTR), wild type, transiently expressed in HEK293 cells (UniProt P13569 1-1480)
Assay: co-IP

Sequence of Cystic fibrosis transmembrane conductance regulator (CFTR), wild type, transiently expressed in HEK293 cells (P13569 whole entry): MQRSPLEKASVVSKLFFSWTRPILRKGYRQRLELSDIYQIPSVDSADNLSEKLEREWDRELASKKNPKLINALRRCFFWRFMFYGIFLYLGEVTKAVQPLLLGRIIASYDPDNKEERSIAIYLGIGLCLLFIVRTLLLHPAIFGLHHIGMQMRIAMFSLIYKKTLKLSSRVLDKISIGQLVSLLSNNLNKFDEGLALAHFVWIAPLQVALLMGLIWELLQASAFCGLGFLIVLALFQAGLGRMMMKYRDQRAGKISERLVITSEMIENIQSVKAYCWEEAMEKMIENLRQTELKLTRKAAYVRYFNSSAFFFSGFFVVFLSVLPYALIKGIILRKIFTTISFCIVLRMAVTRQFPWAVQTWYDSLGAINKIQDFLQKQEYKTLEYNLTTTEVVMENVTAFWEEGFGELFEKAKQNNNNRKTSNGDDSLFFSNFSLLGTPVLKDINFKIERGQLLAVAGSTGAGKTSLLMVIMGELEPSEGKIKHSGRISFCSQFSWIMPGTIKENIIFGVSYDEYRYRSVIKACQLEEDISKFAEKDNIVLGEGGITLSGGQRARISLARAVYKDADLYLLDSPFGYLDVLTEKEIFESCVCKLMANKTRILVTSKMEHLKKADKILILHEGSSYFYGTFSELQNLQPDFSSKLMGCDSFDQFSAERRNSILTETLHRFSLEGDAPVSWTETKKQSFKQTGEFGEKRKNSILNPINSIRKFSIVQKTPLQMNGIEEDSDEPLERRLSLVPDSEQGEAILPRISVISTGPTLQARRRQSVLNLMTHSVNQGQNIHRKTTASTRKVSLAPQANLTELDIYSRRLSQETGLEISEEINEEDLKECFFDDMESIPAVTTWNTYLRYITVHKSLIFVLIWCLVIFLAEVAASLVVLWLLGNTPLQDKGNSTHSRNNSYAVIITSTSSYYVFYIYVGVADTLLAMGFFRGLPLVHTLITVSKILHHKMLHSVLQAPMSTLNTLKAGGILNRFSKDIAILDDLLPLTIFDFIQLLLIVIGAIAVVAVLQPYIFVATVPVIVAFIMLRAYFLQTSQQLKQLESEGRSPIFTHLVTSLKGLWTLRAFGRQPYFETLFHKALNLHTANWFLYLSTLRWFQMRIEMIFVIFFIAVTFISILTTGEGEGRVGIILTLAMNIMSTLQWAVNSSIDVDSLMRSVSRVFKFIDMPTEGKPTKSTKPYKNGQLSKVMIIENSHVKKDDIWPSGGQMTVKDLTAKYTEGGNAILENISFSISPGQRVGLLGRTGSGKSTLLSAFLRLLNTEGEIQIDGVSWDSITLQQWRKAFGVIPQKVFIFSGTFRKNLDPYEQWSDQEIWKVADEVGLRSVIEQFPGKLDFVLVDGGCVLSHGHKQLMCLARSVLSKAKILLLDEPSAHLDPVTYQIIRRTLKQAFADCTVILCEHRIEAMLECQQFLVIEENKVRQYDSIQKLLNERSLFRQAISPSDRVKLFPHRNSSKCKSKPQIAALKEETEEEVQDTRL

B1: 14-3-3ε, endogenous in HEK293 cells (natural protein, human (endogenous in HEK293), UniProt P62258 1-255, looked up)
chain: MDDREDLVYQAKLAEQAERYDEMVESMKKVAGMDVELTVEERNLLSVAYKNVIGARRASWRIISSIEQKEENKGGEDKLKMIREYRQMVETELKLICCDILDVLDKHLIPAANTGESKVFYYKMKGDYHRYLAEFATGNDRKEAAENSLVAYKAASDIAMTELPPTHPIRLGLALNFSVFYYEILNSPDRACRLAKAAFDDAIAELDTLSEESYKDSTLIMQLLRDNLTLWTSDMQGDGEEQNKEALQDVEDENQ
- fold increase of the co-precipitate with forskolin against basal: 3.1 fold
